Laboratory results: publication PMC5856381

Biological target: recombinant haptoglobin Hp1S, C1r-LP processed (rHp 1–1) (human) (UniProt P00738)
Test: non-reducing SDS-PAGE; Coomassie-stained gel of non-reduced protein samples; disulfide-linked dimers and multimers

stoichiometry N: 2
Substance: recombinant haptoglobin Hp1S, C1r-LP processed (rHp 1–1) (from UniProt P00738-2 19-101) (natural protein)
